This note sets out measurements from IntAct's records for PubMed 9488481.

The chains are these.
B1: Death-associated protein kinase 3 (Mus musculus), O54784 (parent)
chain: MSTFRQEDVEDHYEMGEELGSGQFAIVRKCQQKGTGMEYAAKFIKKRRLPSSRRGVSREEIEREVSILREIRHPNIITLHDVFENKTDVVLILELVSGGELFDFLAEKESLTEDEATQFLKQILDGVHYLHSKRIAHFDLKPENIMLLDKHAASPRIKLIDFGIAHRIEAGSEFKNIFGTPEFVAPEIVNYEPLGLEADMWSIGVITYILLSGASPFLGETKQETLTNISAVNYDFDEEYFSSTSELAKDFIRRLLVKDPKRRMTIAQSLEHSWIKVRRREDGARKPERRRLRAARLREYSLKSHSSMPRNTSYASFERFSRVLEDVAAAEQGLRELQRGRRQCRERVCALRAAAEQREARCRDGSAGLGRDLRRLRTELGRTEALRTRAQEEARAALLGAGGLKRRLCRLENRYDALAAQVAAEVQFVRDLVRALEQERLQAECGVR
partner: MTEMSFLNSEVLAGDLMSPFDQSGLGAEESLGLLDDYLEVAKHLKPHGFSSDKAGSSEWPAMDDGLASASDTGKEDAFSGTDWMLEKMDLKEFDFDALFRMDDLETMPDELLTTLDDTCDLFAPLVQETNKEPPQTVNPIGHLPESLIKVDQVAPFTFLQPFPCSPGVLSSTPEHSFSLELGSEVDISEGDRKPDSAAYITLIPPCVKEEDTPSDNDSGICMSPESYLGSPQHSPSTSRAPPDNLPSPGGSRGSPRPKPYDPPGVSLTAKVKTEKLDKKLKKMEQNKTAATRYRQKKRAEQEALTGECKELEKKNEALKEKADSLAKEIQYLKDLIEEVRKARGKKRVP

Variants of B1 are the subject of the experiment. As to conditions: with atf4_mouse Atf4, Q06507.
As for V422A;V429A;L436A, the “effect of a mutation on the interaction” value is given as “disrupting interaction”.
